The target of experiment [1] is T1, influenza A H3 hemagglutinin ectodomain trimer, A/Aichi/02/1968 (Influenza A virus A/Aichi/2/1968 (H3N2, …, UniProt P03437)).
T1 construct: source: Expi293, transient transfection, purified (Ni-NTA, SEC)
Put plainly: ELISA. The following applies: both partners purified. In general terms: ELISA stands for enzyme-linked immunosorbent assay.

Experiment [2] concerns the target T2, influenza A minimal peptide VPNGTLVKTITNDQI (spotted for dot blot) (Influenza A virus (H3 hemagglutinin …)).
T2 chain: VPNGTLVKTITNDQI

We go through eight molecules from publication PMC10273302 (Science (New York, N.Y.), 2023).

B1: flu_c326 (antibody, V domains shown)
VH: EVQLVQSGAEVKKPGESLKISCRTSGFTFTRHWIAWVRQMPGKGLEWMGIIYPGDSDVTYNPSFQGQVTISADKSITTAYLQWSSLQASDTAIYFCAKPYNYCNTTTCYTRGYFDFWGRGTLVTVSS
VL: DIVMTQSPDSLAVSLGERATINCKSSQSLLYRSDNKNYLAWYQQNPGQPPKLLIYWASIRESGVSDRFSGSGSGTDFTLTINSLQAEDVAVYYCQQYYFTPYTFGQGTKLEIK
notes: recombinant human IgG
As for B1, in experiment [1], the binding result is reported as “binds”.

B2: clonotype286 (10x_4) (antibody, V domains shown)
VH: EVQLVQSGPEVKEPGESLKISCKASGYNFAKYWIAWVRQMPGKGLEWMGIVYPGDSDTRYSPSFQGQVTISADKSLTTAYLQWSSLKASDTAIYYCARGVQDCDSRNCYAYNWFDPWGQGTLVTVSS
VL: DIVMTQSPESLAVSLGERATINCKSSHSVFFSSNNKNYLSWYQQKPGQPPKLLIYWASTRQSGVPDRFSGGGSGTDFTLTISSLQAEDVAVYYCQQYYYSPYTFGQGTKLEIK
For the molecule B2, the binding result in experiment [2] is recorded as “binds”.

B3: clonotype473 (10x_4) (antibody, V domains shown)
VH: EVQLVQSGAEVKKPGESLRISCKGSGYTFSTHWIGWVRHMPGKGLEWVGVIYPDDSDTRLSPSFQGQVTISADKSTTTAFLWWSSLKASDTATYYCARGVQSCIRNTCSFYGWFDRWGQGTRVTVSS
VL: DIVMTQSPDSLAVSLGERATIYCKSSHSLLYSSNNYNYLAWYQQKPGQPPKLLIYWASTRESGVPDRFSGSGSGTDFTLTISSLQAADVAVYYCQQYFYSPYTFGQGTKVEIR
Regarding B3, the binding result in experiment [2] is “binds”.

B4: clonotype3 (10x_4) (antibody, V domains shown)
VH: EVQLVQSGAEVKKPGESLKISCKVSGYSFTTYWIAWVRQMPGKGLEWMGIIYPGDSDTRYSPSFQGQVTISADKSVTTAYLQWGSVKASDTAMYYCARPPHFIDAGGRQTPGYFDLWGQGTLVTVSS
VL: DIVMTQSPDSLAVSLGERATINCKSSQTVLFRSNNKNYLAWYQQKPGQPPKLLIYWASTRQSGVPDRFSGSGSGTDFTLTISSLQAEDVALYFCQQYHDSPYTFGQGTKVEIK
As to B4, the binding result in experiment [2] is “binds”.

B5: flu_c357 (antibody, V domains shown)
VH: EVQLVQSGAEVKKPGESLKISCKTSGFKFTSHWIAWVRQMPGKGLEWMGIIYPGDSDTRYNPSFEGQVTVSADKSINTAYLQWSSLKASDTAMYYCARLPHRESGNVSTTWGWFDPWGQGTLVTISS
VL: DIVLTQSPDSLAVSLGERATINCKSSHNVLYISNSKNYLAWYQQKPGQPPKLLIYWASTRESGVPDRFSGSGSGTDFTLTISSLQPEDVAVYYCQQYFSTPYTFGQGTRLEIK
notes: recombinant human IgG
Take B5: the binding result in experiment [1] was “binds”.

B6: clonotype2760 (Quake) (antibody, V domains shown)
VH: EVQLVQSEIEVRKPGESLKISCKGSGYNFATHWIGWVRQMPGKGLEWMGTIYPLDSDTRYSPYFQGQVTISADKSINTAYLQWNSLKASDTAMYYCARVPEGSVVAGEVHFYYYMDVWGKGTAVTVSS
VL: DIVMTQSPDSLAVSLGERATINCKSSQSLLYSSNNRNYLAWYQHKPGQPPKLLMYWASTRESGVPDRFSGGGSETDFTLTISSLQAEDVAMYYCQQYYFTPYTFGQGTKLEIK
As to B6, in experiment [2], the binding result is recorded as “binds”.

B7: clonotype4582 (Quake) (antibody, V domains shown)
VH: EVQLVQSGAEVKKPGESLKISCKASGYTFTNYWIAWVRQMPGKGLEWMGIIFPSDSDTRYSPSFQGQVTISADKSVSTAYLQWSSLKASDTAMYYCARGAATILRGVVTSYNWFDSWGQGTLVTVSS
VL: DVVMTQSPDSLAASLGERATINCTSSHNILYNSNNNNYLAWYQQKPGQPPKLLIYWASTRESGVPDRFSGSGSGTDFTLTISSLQAEDVAVYSCQQYFSTPYTFGQGTKLEIK
As for B7, the binding result in experiment [2] was “binds”.

B8: flu_c645 (antibody, V domains shown)
VH: EVQLVQSGAEVKKPGESLKISCQASGYIFVNYWVGWLRQAPGKGLEWIGIIFPGDSDTTYSPSFQGQVTISAAKSINTVYLQWNSLKASDTAMYYCARAPVPGMSGWFDPWGQGTLVTVSS
VL: DIVMTQSPDSLAVSLGGGATIKCKSSHSLLYSSNSKNYLSWYQQKPGQPPKLLFYWASTRESGVPDRFSGSGSGTDFTLTIDSLQAEDLAVYFCQQYFYTPYTFGQGTKLEIN
With B8, the binding result in experiment [2] is on record as “binds”.
